B1: Katanin p60 ATPase-containing subunit A-like 1 (Homo sapiens), Q9BW62 (parent)
chain: MNLAEICDNAKKGREYALLGNYDSSMVYYQGVMQQIQRHCQSVRDPAIKGKWQQVRQELLEEYEQVKSIVSTLESFKIDKPPDFPVSCQDEPFRDPAVWPPPVPAEHRAPPQIRRPNREVRPLRKEMAGVGARGPVGRAHPISKSEKPSTSRDKDYRARGRDDKGRKNMQDGASDGEMPKFDGAGYDKDLVEALERDIVSRNPSIHWDDIADLEEAKKLLREAVVLPMWMPDFFKGIRRPWKGVLMVGPPGTGKTMLAKAVATECGTTFFNVSSSTLTSKYRGESEKLVRLLFEMARFYAPTTIFIDEIDSICSRRGTSDEHEASRRVKSELLIQMDGVGGALENDDPSKMVMVLAATNFPWDIDEALRRRLEKRIYIPLPTAKGRAELLKINLREVELDPDIQLEDIAEKIEGYSGADITNVCRDASLMAMRRRINGLSPEEIRALSKEELQMPVTKGDFELALKKIAKSVSAADLEKYEKWMVEFGSA
partner: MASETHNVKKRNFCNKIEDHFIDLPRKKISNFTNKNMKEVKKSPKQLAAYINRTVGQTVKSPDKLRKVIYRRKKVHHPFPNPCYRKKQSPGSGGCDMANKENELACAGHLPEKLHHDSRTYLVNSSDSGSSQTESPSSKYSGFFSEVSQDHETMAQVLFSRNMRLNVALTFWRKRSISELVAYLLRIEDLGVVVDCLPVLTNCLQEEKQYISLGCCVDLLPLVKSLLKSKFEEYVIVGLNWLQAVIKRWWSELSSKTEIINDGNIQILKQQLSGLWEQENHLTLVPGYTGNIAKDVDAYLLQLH
B2: Uridine diphosphate glucose pyrophosphatase NUDT22 (Homo sapiens), Q9BRQ3 (parent)
chain: MDPEVTLLLQCPGGGLPQEQIQAELSPAHDRRPLPGGDEAITAIWETRLKAQPWLFDAPKFRLHSATLAPIGSRGPQLLLRLGLTSYRDFLGTNWSSSAAWLRQQGATDWGDTQAYLADPLGVGAALATADDFLVFLRRSRQVAEAPGLVDVPGGHPEPQALCPGGSPQHQDLAGQLVVHELFSSVLQEICDEVNLPLLTLSQPLLLGIARNETSAGRASAEFYVQCSLTSEQVRKHYLSGGPEAHESTGIFFVETQNVQRLLETEMWAELCPSAKGAIILYNRVQGSPTGAALGSPALLPPL
partner: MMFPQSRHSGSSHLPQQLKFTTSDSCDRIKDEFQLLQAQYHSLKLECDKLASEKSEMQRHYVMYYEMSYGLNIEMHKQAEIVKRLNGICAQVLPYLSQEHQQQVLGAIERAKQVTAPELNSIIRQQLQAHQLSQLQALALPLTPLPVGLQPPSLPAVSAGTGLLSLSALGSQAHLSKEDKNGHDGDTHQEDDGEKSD
B3: Tetratricopeptide repeat protein 14 (Homo sapiens), Q96N46 (parent)
chain: MDRDLLRQSLNCHGSSLLSLLRSEQQDNPHFRSLLGSAAEPARGPPPQHPLQGRKEKRVDNIEIQKFISKKADLLFALSWKSDAPATSEINEDSEDHYAIMPPLEQFMEIPSMDRRELFFRDIERGDIVIGRISSIREFGFFMVLICLGSGIMRDIAHLEITALCPLRDVPSHSNHGDPLSYYQTGDIIRAGIKDIDRYHEKLAVSLYSSSLPPHLSGIKLGVISSEELPLYYRRSVELNSNSLESYENVMQSSLGFVNPGVVEFLLEKLGIDESNPPSLMRGLQSKNFSEDDFASALRKKQSASWALKCVKIGVDYFKVGRHVDAMNEYNKALEIDKQNVEALVARGALYATKGSLNKAIEDFELALENCPTHRNARKYLCQTLVERGGQLEEEEKFLNAESYYKKALALDETFKDAEDALQKLHKYMQKSLELREKQAEKEEKQKTKKIETSAEKLRKLLKEEKRLKKKRRKSTSSSSVSSADESVSSSSSSSSSGHKRHKKHKRNRSESSRSSRRHSSRASSNQIDQNRKDECYPVPANTSASFLNHKQEVEKLLGKQDRLQYEKTQIKEKDRCPLSSSSLEIPDDFGGRSEDPRDFYNSYKTQAGSSKTEKPYKSERHFSSRRNSSDSFCRNSEDKIYGYRRFEKDIEGRKEHYRRWEPGSVRHSTSPASSEYSWKSVEKYKKYAHSGSRDFSRHEQRYRLNTNQGEYEREDNYGEDIKTEVPEEDALSSKEHSESSVKKNLPQNLLNIFNQIAEFEKEKGNKSKN
B4: Regulator of G-protein signaling 20 (Homo sapiens), O76081 (parent)
chain: MPQLSQDNQECLQKHFSRPSIWTQFLPLFRAQRYNTDIHQITENEGDLRAVPDIKSFPPAQLPDSPAAPKLFGLLSSPLSSLARFFSHLLRRPPPEAPRRRLDFSPLLPALPAARLSRGHEELPGRLSLLLGAALALPGRPSGGRPLRPPHPVAKPREEDATAGQSSPMPQMGSERMEMRKRQMPAAQDTPGAAPGQPGAGSRGSNACCFCWCCCCSCSCLTVRNQEDQRPTIASHELRADLPTWEESPAPTLEEVNAWAQSFDKLMVTPAGRNAFREFLRTEFSEENMLFWMACEELKKEANKNIIEEKARIIYEDYISILSPKEVSLDSRVREVINRNMVEPSQHIFDDAQLQIYTLMHRDSYPRFMNSAVYKDLLQSLSEKSIEA
B5: Phospholipase A and acyltransferase 4 (Homo sapiens), Q9UL19 (parent)
chain: MASPHQEPKPGDLIEIFRLGYEHWALYIGDGYVIHLAPPSEYPGAGSSSVFSVLSNSAEVKRERLEDVVGGCCYRVNNSLDHEYQPRPVEVIISSAKEMVGQKMKYSIVSRNCEHFVTQLRYGKSRCKQVEKAKVEVGVATALGILVVAGCSFAIRRYQKKATA
B6: Zinc finger and BTB domain-containing protein 9 (Homo sapiens), Q96C00 (parent)
chain: METPTPLPPVPASPTCNPAPRTIQIEFPQHSSSLLESLNRHRLEGKFCDVSLLVQGRELRAHKAVLAAASPYFHDKLLLGDAPRLTLPSVIEADAFEGLLQLIYSGRLRLPLDALPAHLLVASGLQMWQVVDQCSEILRELETSGGGISARGGNSYHALLSTTSSTGGWCIRSSPFQTPVQSSASTESPASTESPVGGEGSELGEVLQIQVEEEEEEEEDDDDEDQGSATLSQTPQPQRVSGVFPRPHGPHPLPMTATPRKLPEGESAPLELPAPPALPPKIFYIKQEPFEPKEEISGSGTQPGGAKEETKVFSGGDTEGNGELGFLLPSGPGPTSGGGGPSWKPVDLHGNEILSGGGGPGGAGQAVHGPVKLGGTPPADGKRFGCLCGKRFAVKPKRDRHIMLTFSLRPFGCGICNKRFKLKHHLTEHMKTHAGALHACPHCGRRFRVHACFLRHRDLCKGQGWATAHWTYK
partner: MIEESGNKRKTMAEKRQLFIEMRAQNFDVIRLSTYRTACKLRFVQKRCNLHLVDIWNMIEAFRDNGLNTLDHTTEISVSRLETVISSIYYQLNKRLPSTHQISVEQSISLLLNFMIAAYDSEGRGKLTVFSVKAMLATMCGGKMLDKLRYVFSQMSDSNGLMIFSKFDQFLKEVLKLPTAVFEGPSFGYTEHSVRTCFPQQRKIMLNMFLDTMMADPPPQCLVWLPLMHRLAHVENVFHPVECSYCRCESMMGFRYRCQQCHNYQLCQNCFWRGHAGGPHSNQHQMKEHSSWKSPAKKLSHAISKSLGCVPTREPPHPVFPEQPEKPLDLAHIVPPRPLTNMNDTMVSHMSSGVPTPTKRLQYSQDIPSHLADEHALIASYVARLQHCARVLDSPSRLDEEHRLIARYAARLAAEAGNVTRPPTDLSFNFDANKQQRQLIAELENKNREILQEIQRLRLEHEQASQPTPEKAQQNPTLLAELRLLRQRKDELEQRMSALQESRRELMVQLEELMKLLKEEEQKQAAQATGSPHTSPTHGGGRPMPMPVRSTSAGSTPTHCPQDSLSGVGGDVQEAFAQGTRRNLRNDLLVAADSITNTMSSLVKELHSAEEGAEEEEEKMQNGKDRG
B7: Asc-type amino acid transporter 1 (Homo sapiens), Q9NS82 (parent)
chain: MAGHTQQPSGRGNPRPAPSPSPVPGTVPGASERVALKKEIGLLSACTIIIGNIIGSGIFISPKGVLEHSGSVGLALFVWVLGGGVTALGSLCYAELGVAIPKSGGDYAYVTEIFGGLAGFLLLWSAVLIMYPTSLAVISMTFSNYVLQPVFPNCIPPTTASRVLSMACLMLLTWVNSSSVRWATRIQDMFTGGKLLALSLIIGVGLLQIFQGHFEELRPSNAFAFWMTPSVGHLALAFLQGSFAFSGWNFLNYVTEEMVDARKNLPRAIFISIPLVTFVYTFTNIAYFTAMSPQELLSSNAVAVTFGEKLLGYFSWVMPVSVALSTFGGINGYLFTYSRLCFSGAREGHLPSLLAMIHVRHCTPIPALLVCCGATAVIMLVGDTYTLINYVSFINYLCYGVTILGLLLLRWRRPALHRPIKVNLLIPVAYLVFWAFLLVFSFISEPMVCGVGVIIILTGVPIFFLGVFWRSKPKCVHRLTESMTHWGQELCFVVYPQDAPEEEENGPCPPSLLPATDKPSKPQ
partner: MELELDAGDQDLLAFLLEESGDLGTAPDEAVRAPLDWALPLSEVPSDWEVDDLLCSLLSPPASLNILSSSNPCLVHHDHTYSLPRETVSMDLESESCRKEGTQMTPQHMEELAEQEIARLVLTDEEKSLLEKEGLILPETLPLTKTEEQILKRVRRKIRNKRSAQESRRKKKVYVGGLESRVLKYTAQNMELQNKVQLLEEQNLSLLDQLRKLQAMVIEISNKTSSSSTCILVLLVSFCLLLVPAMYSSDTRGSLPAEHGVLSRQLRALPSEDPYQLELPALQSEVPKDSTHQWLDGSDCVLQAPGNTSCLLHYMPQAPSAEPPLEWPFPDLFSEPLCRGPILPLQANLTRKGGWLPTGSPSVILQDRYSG

Variants of: B1
Conditions: with ktbl1_human KATNBL1, Q9H079

effect of a mutation on the interaction | Variant
with no effect | A300S
with no effect | C424S

Variants of: B2
Conditions: with tle5_human TLE5, Q08117

effect of a mutation on the interaction | Variant
with no effect | G36C

Variants of: B3
Conditions: with cep70_human CEP70, Q8NHQ1
Chain of cep70_human CEP70, Q8NHQ1 (Q8NHQ1 whole entry): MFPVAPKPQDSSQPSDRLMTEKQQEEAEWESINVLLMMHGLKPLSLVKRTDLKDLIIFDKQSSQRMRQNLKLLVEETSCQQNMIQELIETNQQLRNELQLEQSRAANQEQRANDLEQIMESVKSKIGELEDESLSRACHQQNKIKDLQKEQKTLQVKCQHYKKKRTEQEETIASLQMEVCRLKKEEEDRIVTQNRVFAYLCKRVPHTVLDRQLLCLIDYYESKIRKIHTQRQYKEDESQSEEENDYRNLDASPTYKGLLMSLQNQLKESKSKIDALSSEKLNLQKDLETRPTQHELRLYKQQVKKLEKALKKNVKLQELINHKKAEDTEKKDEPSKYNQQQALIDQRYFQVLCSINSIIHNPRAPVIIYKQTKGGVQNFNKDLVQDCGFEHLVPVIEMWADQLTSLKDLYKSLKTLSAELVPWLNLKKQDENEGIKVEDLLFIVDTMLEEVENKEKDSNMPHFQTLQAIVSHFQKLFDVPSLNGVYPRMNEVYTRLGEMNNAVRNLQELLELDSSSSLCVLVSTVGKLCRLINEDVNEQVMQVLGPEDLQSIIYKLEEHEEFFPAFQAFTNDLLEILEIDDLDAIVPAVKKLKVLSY

effect of a mutation on the interaction | Variant
with no effect | S697G
with no effect | E486Q

Variants of: B4
Conditions: with otx1_human OTX1, P32242
Chain of otx1_human OTX1, P32242 (P32242 whole entry): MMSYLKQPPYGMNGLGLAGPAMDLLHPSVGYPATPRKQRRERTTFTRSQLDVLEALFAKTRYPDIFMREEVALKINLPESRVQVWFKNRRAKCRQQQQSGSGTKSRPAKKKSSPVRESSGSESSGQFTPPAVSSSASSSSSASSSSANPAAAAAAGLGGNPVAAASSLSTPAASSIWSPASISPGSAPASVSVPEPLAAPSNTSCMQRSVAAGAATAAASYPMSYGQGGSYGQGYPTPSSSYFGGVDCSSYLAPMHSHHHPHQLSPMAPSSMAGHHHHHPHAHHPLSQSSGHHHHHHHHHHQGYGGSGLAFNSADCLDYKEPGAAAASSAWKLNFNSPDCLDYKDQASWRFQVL

effect of a mutation on the interaction | Variant
with no effect | H347Y

Variants of: B4
Conditions: with co8a1_human COL8A1, P27658
Chain of co8a1_human COL8A1, P27658 (P27658 whole entry): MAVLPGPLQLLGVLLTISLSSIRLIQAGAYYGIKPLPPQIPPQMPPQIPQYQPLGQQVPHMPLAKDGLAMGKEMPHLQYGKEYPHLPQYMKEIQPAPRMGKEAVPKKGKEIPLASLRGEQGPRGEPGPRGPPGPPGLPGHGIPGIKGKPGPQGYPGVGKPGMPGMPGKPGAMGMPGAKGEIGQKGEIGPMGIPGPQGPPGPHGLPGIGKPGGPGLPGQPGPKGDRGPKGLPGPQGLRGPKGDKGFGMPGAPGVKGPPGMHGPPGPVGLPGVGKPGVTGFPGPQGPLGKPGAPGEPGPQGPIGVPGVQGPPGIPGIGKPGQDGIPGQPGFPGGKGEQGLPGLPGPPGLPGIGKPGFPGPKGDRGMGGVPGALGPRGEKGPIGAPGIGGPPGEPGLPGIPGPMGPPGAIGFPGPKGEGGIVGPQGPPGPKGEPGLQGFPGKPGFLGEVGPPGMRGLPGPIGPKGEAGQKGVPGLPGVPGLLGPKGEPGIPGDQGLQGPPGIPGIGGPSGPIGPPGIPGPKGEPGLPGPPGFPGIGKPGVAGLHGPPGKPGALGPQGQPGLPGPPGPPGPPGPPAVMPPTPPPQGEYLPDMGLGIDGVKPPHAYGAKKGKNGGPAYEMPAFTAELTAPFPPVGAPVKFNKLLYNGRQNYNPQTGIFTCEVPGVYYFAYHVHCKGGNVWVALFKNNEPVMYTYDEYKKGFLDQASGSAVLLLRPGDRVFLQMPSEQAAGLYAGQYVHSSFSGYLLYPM

effect of a mutation on the interaction | Variant
with no effect | H347Y

Variants of: B4
Conditions: with hxa1_human HOXA1, P49639
Chain of hxa1_human HOXA1, P49639 (P49639 whole entry): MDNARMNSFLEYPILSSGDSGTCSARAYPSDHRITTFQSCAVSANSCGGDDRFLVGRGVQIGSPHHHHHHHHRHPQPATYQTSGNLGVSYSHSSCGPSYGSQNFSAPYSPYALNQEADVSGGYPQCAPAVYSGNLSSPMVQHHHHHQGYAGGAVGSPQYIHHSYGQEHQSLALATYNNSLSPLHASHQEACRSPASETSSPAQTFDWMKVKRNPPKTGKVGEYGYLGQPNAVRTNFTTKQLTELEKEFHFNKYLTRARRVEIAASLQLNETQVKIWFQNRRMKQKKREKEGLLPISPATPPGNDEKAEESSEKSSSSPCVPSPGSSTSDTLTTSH

effect of a mutation on the interaction | Variant
with no effect | H347Y

Variants of: B5
Conditions: with sgta_human SGTA

effect of a mutation on the interaction | Variant
disrupting interaction strength | T141M

Variants of: B6
Conditions: with dtnb_human DTNB

effect of a mutation on the interaction | Variant
with no effect | S173C

Variants of: B7
Conditions: with creb3_human CREB3, O43889

effect of a mutation on the interaction | Variant
with no effect | R413Q
with no effect | R267H

Source: IntAct's records for PubMed 31515488
